{
  "source": "paper PMC4605646",
  "about": "(PLoS ONE, 2015)",
  "binders": {"B1": {"name": "CsgE (natural protein)", "chain": "VEVEVPGLLTDHTVSSIGHDFYRAFSDKWESDYTGNLTINERPSARWGSWITITVNQDVIFQTFLFPLKRDFEKTVVFALIQTEEALNRRQINQALLSTGDLAHDEF"}},
  "biological_target": "human α-synuclein (human, UniProt P37840 1-140)",
  "assay": "cell-based or functional assay",
  "data": [
    {"binder": "B1", "values": [
      {"measurement": "lag phase of α-synuclein amyloid formation (ThT fluorescence, 70 μM α-synuclein, 37°C, agitation) at CsgE-to-α-synuclein molar ratios of 1-to-3, 1-to-10 and 1-to-100", "value": 4, "unit": "fold"}
    ]}
  ]
}
